From paper PMC8035640

What was measured:
[1] = target: LchD^GGDEV-His, soluble cytoplasmic fragment of LchD (Lysobacter enzymogenes OH11); assay: MST
PilR-His = target: T1, PilR-His (Lysobacter enzymogenes OH11, UniProt A0A5P2TY02 1-471); assay: EMSA
T1 sequence: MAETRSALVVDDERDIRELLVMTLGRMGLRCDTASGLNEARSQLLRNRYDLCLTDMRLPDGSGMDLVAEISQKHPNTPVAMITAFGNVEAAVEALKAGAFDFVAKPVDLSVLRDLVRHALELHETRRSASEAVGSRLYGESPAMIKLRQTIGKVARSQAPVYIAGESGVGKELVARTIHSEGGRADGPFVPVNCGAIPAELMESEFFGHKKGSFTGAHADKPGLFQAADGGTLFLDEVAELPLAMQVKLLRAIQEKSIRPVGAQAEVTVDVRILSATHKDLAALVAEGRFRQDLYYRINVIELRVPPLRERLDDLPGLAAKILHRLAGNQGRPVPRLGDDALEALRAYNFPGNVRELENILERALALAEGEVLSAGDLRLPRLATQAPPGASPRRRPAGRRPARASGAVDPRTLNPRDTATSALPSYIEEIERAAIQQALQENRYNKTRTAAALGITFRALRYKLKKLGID

B1: Clp-glutathione S-transferase (GST) (natural protein)
chain: MSANPVAPLTALRRTNSPLLPDGATIERFLAHCHRRRYPSRTDVFRPGDPASTLYYVVSGSVSIITEEEDGRELVLGYFGPGEFVGELGLFIESDHREVILRTRSTCELAEIGHERLYDLLLTRLSLDAPKLLYAIGAQISRRLLDTSRKAGRLAFLDVTDRIVRALHDLAKEPEAMSHPQGTQLRVSRQELSRLVGCSREMAGRVLKKLQADGKLHARGKTVVLYGTR
- Kd [1]: 490 nM

B2: PLchD-2b (dsDNA)
DNA 1: CCTGCACCGGAATGCAGCCCCCTTGGGCTATGCTCGGCACAGCAGACTGG
DNA 2: CCAGTCTGCTGTGCCGAGCATAGCCCAAGGGGGCTGCATTCCGGTGCAGG
- binding result (PilR-His): no binding

B3: PLchD-2c (dsDNA)
DNA 1: TGACCGGAAGGGGCATGGGGACACCCTGGCGTGGAAGCTGGCGCGGCTGG
DNA 2: CCAGCCGCGCCAGCTTCCACGCCAGGGTGTCCCCATGCCCCTTCCGGTCA
- binding result (PilR-His): no binding
